The text below walks through data of patent US20250074980A1 (BRIGHAM AND WOMEN S HOSPITAL, published 2025).

As usually defined, the Kd is the concentration at which binding is half-saturated. The koff is the rate constant with which the complex falls apart. The low end stands for slow dissociation, the high end for fast dissociation. One may read the kon as the rate constant with which the complex forms. Higher therefore signals faster complex formation.

T1: His-tagged CEACAM1 (human, UniProt P13688 35-428)
T1 construct: 45 kDa SPR analyte; also called CEACAM1-HIS; CEACAM1 analyte
T1 sequence: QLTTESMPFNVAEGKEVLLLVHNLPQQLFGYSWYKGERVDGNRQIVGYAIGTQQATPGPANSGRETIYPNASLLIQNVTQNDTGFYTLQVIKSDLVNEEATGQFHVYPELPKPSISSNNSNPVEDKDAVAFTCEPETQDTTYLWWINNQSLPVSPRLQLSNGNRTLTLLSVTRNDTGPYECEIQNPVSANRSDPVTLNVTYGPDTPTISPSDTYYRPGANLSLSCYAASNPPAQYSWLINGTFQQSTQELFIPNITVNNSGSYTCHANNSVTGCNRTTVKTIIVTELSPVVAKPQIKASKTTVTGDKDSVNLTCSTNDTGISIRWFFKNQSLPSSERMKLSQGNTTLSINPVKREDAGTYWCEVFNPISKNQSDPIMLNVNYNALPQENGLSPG

B1: CP09B03/Vκ8 S29A (antibody, IgG4, V domains shown)
VH: EVQLLESGGGLVQPGGSLRLSCAASGFTFNAHAISWVRQAPGKGLEWVATISSGGTYTYYPDSVKGRFTISRDNSKNTLYLQMNSLKAEDTAMYYCARHDFDYDAAWFAYWGQGTLVTVSS
VL: EIVLTQSPATLSLSPGERATLSCRANSAVSYMYWYQQKPGQAPRPWIYLTSNRATGVPARFSGSGSGTDYTLTISSLEPEDFAVYYCQQWSSNPPTFGQGTKLEIK
notes: IgG4 (S241P), kappa
B2: CP09B03/CP08D02 (antibody, IgG4, V domains shown)
VH: EVQLLESGGGLVQPGGSLRLSCAASGFTFNAHAISWVRQAPGKGLEWVATISSGGTYTYYPDSVKGRFTISRDNSKNTLYLQMNSLKAEDTAMYYCARHDFDYDAAWFAYWGQGTLVTVSS
VL: EIVLTQSPATLSLSPGERATLSCRANSAVSYMYWYQQKPGQAPRPWIYLTSNRATGVPARFSGSGSGTDYTLTISSLEPEDFAVYYCQQWTSFPPTFGQGTKLEIK
notes: IgG4 (S241P), kappa
B3: CP09E05/CP08D02 (antibody, IgG4, V domains shown)
VH: EVQLLESGGGLVQPGGSLRLSCAASGFIFSSHGMSWVRQAPGKGLEWVATISSGGTYTYYPDSVKGRFTISRDNSKNTLYLQMNSLKAEDTAMYYCARHGFDYDAAWFAYWGQGTLVTVSS
VL: EIVLTQSPATLSLSPGERATLSCRANSAVSYMYWYQQKPGQAPRPWIYLTSNRATGVPARFSGSGSGTDYTLTISSLEPEDFAVYYCQQWTSFPPTFGQGTKLEIK
notes: IgG4 (S241P), kappa
B4: CP09E05/CP08F05 (antibody, IgG4, V domains shown)
VH: EVQLLESGGGLVQPGGSLRLSCAASGFIFSSHGMSWVRQAPGKGLEWVATISSGGTYTYYPDSVKGRFTISRDNSKNTLYLQMNSLKAEDTAMYYCARHGFDYDAAWFAYWGQGTLVTVSS
VL: EIVLTQSPATLSLSPGERATLSCRANSAVSYMYWYQQKPGQAPRPWIYLTSNRATGVPARFSGSGSGTDYTLTISSLEPEDFAVYYCQQWTSNPPTFGQGTKLEIK
notes: IgG4 (S241P), kappa
B5: CP09E05/CP08E01 (antibody, IgG4, V domains shown)
VH: EVQLLESGGGLVQPGGSLRLSCAASGFIFSSHGMSWVRQAPGKGLEWVATISSGGTYTYYPDSVKGRFTISRDNSKNTLYLQMNSLKAEDTAMYYCARHGFDYDAAWFAYWGQGTLVTVSS
VL: EIVLTQSPATLSLSPGERATLSCRANSAVSYMYWYQQKPGQAPRPWIYLTSNRATGVPARFSGSGSGTDYTLTISSLEPEDFAVYYCQQWTTFPPTFGQGTKLEIK
notes: IgG4 (S241P), kappa
B6: CP09C02/CP08G09 (antibody, IgG4, V domains shown)
VH: EVQLLESGGGLVQPGGSLRLSCAASEFTFSDHAMSWVRQAPGKGLEWVATISSGGTYTYYPDSVKGRFTISRDNSKNTLYLQMNSLKAEDTAMYYCARHGFDYDAAWFAYWGQGTLVTVSS
VL: EIVLTQSPATLSLSPGERATLSCRANSAVSYMYWYQQKPGQAPRPWIYLTSNRATGVPARFSGSGSGTDYTLTISSLEPEDFAVYYCQQWTAFPPTFGQGTKLEIK
notes: IgG4 (S241P), kappa
B7: CP09E05/CP08E05 (antibody, IgG4, V domains shown)
VH: EVQLLESGGGLVQPGGSLRLSCAASGFIFSSHGMSWVRQAPGKGLEWVATISSGGTYTYYPDSVKGRFTISRDNSKNTLYLQMNSLKAEDTAMYYCARHGFDYDAAWFAYWGQGTLVTVSS
VL: EIVLTQSPATLSLSPGERATLSCRANSAVSYMYWYQQKPGQAPRPWIYLTSNRATGVPARFSGSGSGTDYTLTISSLEPEDFAVYYCQQWTTNPPTFGQGTKLEIK
notes: IgG4 (S241P), kappa
B8: CP09B03/CP08G09 (antibody, IgG4, V domains shown)
VH: EVQLLESGGGLVQPGGSLRLSCAASGFTFNAHAISWVRQAPGKGLEWVATISSGGTYTYYPDSVKGRFTISRDNSKNTLYLQMNSLKAEDTAMYYCARHDFDYDAAWFAYWGQGTLVTVSS
VL: EIVLTQSPATLSLSPGERATLSCRANSAVSYMYWYQQKPGQAPRPWIYLTSNRATGVPARFSGSGSGTDYTLTISSLEPEDFAVYYCQQWTAFPPTFGQGTKLEIK
notes: IgG4 (S241P), kappa
B9: CP09B03/CP08E01 (antibody, IgG4, V domains shown)
VH: EVQLLESGGGLVQPGGSLRLSCAASGFTFNAHAISWVRQAPGKGLEWVATISSGGTYTYYPDSVKGRFTISRDNSKNTLYLQMNSLKAEDTAMYYCARHDFDYDAAWFAYWGQGTLVTVSS
VL: EIVLTQSPATLSLSPGERATLSCRANSAVSYMYWYQQKPGQAPRPWIYLTSNRATGVPARFSGSGSGTDYTLTISSLEPEDFAVYYCQQWTTFPPTFGQGTKLEIK
notes: IgG4 (S241P), kappa
B10: CP09C02/CP08D02 (antibody, IgG4, V domains shown)
VH: EVQLLESGGGLVQPGGSLRLSCAASEFTFSDHAMSWVRQAPGKGLEWVATISSGGTYTYYPDSVKGRFTISRDNSKNTLYLQMNSLKAEDTAMYYCARHGFDYDAAWFAYWGQGTLVTVSS
VL: EIVLTQSPATLSLSPGERATLSCRANSAVSYMYWYQQKPGQAPRPWIYLTSNRATGVPARFSGSGSGTDYTLTISSLEPEDFAVYYCQQWTSFPPTFGQGTKLEIK
notes: IgG4 (S241P), kappa
B11: CP09C02/CP08E01 (antibody, IgG4, V domains shown)
VH: EVQLLESGGGLVQPGGSLRLSCAASEFTFSDHAMSWVRQAPGKGLEWVATISSGGTYTYYPDSVKGRFTISRDNSKNTLYLQMNSLKAEDTAMYYCARHGFDYDAAWFAYWGQGTLVTVSS
VL: EIVLTQSPATLSLSPGERATLSCRANSAVSYMYWYQQKPGQAPRPWIYLTSNRATGVPARFSGSGSGTDYTLTISSLEPEDFAVYYCQQWTTFPPTFGQGTKLEIK
notes: IgG4 (S241P), kappa
B12: CP09E05/CP08G09 (antibody, IgG4, V domains shown)
VH: EVQLLESGGGLVQPGGSLRLSCAASGFIFSSHGMSWVRQAPGKGLEWVATISSGGTYTYYPDSVKGRFTISRDNSKNTLYLQMNSLKAEDTAMYYCARHGFDYDAAWFAYWGQGTLVTVSS
VL: EIVLTQSPATLSLSPGERATLSCRANSAVSYMYWYQQKPGQAPRPWIYLTSNRATGVPARFSGSGSGTDYTLTISSLEPEDFAVYYCQQWTAFPPTFGQGTKLEIK
notes: IgG4 (S241P), kappa
B13: CP09B03/CP08F05 (antibody, IgG4, V domains shown)
VH: EVQLLESGGGLVQPGGSLRLSCAASGFTFNAHAISWVRQAPGKGLEWVATISSGGTYTYYPDSVKGRFTISRDNSKNTLYLQMNSLKAEDTAMYYCARHDFDYDAAWFAYWGQGTLVTVSS
VL: EIVLTQSPATLSLSPGERATLSCRANSAVSYMYWYQQKPGQAPRPWIYLTSNRATGVPARFSGSGSGTDYTLTISSLEPEDFAVYYCQQWTSNPPTFGQGTKLEIK
notes: IgG4 (S241P), kappa

In the first experiment the target is T1, His-tagged CEACAM1. The experiment in a line: SPR single-cycle, supernatant IgG captured. As for the experimental part: In order to assess the binding of the humanized, affinity matured reformatted lead IgGs, single-cycle kinetics analysis was performed on crude supernatants using a Biacore T200 running Biacore T200 Control Software V2.0.1 and Biacore T200 Evaluation Software V3.0. Antibodies were diluted in HBS-P+ to a final concentration of 0.5 μg/ml. At the start of each cycle, antibodies were loaded onto Fc2, Fc3 and Fc4 of the Protein A chip. IgGs were captured at a flow rate of 10 μl/min to give an immobilisation level (RL) of ˜100 RU (a level calculated to obtain a Rₘₐₓ of ˜50-150 RU once the analyte is bound). The surface was then allowed to stabilize. Single-cycle kinetics data was obtained with CEACAM1 as the analyte at a flow rate of 80 μl/min to minimize any potential mass transfer effects. Multiple repeats with the parent (VH1/Vκ8 S29A) antibody were performed to check the stability of the surface and analyte over the kinetic cycles. The signal from the reference channel Fc1 (no antibody) was subtracted from that of Fc2, Fc3 and Fc4 to correct for differences in non-specific binding to the reference surface. A three point, two-fold dilution range from 70 nM to 280 nM CEACAM1 without regeneration between each concentration was used. The signal from each antibody blank run (no CEACAM1) was subtracted to correct for differences in surface stability. The association phase for the three injections of increasing concentrations of CEACAM1 was monitored for 80 seconds each time and a single dissociation phase was measured for 150 seconds following the last injection of CEACAM1. Regeneration of the Protein A surface was conducted using two injections of 10 mM glycine-HCL pH 1.5 followed by a stabilization period of 250 seconds.
For B1, the Kd came out at 260 nM, the koff worked out at 0.039 s⁻¹, the kon is 150000 M⁻¹ s⁻¹ and the “relative KD to parent” value was 2.4.

The next experiment addresses T1, His-tagged CEACAM1. The experiment in a line: SPR single-cycle, supernatant IgG captured. The source holds these as a separate data set. Summed up:
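On a Biacore T200 run at 25° C in HBS-P+ (pH 7.4), IgG captured on Protein A was probed with His-tagged CEACAM1 by single-cycle surface plasmon resonance. Fitted Kon, koff and Kd gave a relative KD referenced to the parent antibody from the same experiment. The IgG came from filtered, ELISA-quantified supernatants of HEK EBNA cells transiently transfected with PEI and harvested after 5-7 days.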
B2: binding was characterised by a dissociation constant (Kd) of 290 nM, the koff is 0.059 s⁻¹, the on-rate (kon) came to 210000 M⁻¹ s⁻¹ and the “relative KD to parent” value is 1.9.

For the molecule B3, the Kd amounted to 330 nM, the koff is 0.074 s⁻¹, the kon turned out to be 230000 M⁻¹ s⁻¹ and the “relative KD to parent” value is 1.7.

On to B4, for which binding was characterised by a dissociation constant (Kd) of 250 nM, the koff was determined as 0.034 s⁻¹, the kon is 140000 M⁻¹ s⁻¹ and the “relative KD to parent” value was determined as 2.2.

With B5, binding was characterised by a dissociation constant (Kd) of 320 nM, the koff was 0.041 s⁻¹, the on-rate constant (kon) was 130000 M⁻¹ s⁻¹ and the “relative KD to parent” value is 1.7.

Turning to B6, the Kd was determined as 140 nM, the koff worked out at 0.018 s⁻¹, the kon is 130000 M⁻¹ s⁻¹ and the “relative KD to parent” value was found to be 3.9.

Regarding B7, the Kd was 200 nM, the koff worked out at 0.02 s⁻¹, the kon was 100000 M⁻¹ s⁻¹ and the “relative KD to parent” value came to 2.8.

Consider B8, for which the dissociation constant (Kd) amounted to 300 nM, the koff was 0.037 s⁻¹, the kon was determined as 130000 M⁻¹ s⁻¹ and the “relative KD to parent” value turned out to be 1.9.

On to B9, for which binding was put at a Kd of 250 nM, the koff came out at 0.046 s⁻¹, the on-rate (kon) was 180000 M⁻¹ s⁻¹ and the “relative KD to parent” value turned out to be 2.2.

With B10, the dissociation constant (Kd) worked out at 140 nM, the off-rate constant (koff) amounted to 0.022 s⁻¹, the on-rate (kon) was determined as 160000 M⁻¹ s⁻¹ and the “relative KD to parent” value was found to be 4.

Take B11: the affinity, expressed as Kd, was 140 nM; the koff came out at 0.02 s⁻¹; the kon amounted to 140000 M⁻¹ s⁻¹; the “relative KD to parent” value was 3.9.

With B1, the Kd came to 300 nM, the koff amounted to 0.052 s⁻¹, the kon turned out to be 170000 M⁻¹ s⁻¹ and the “relative KD to parent” value amounted to 1.8.

In the case of B12, the Kd came out at 320 nM, the koff turned out to be 0.043 s⁻¹, the kon was determined as 140000 M⁻¹ s⁻¹ and the “relative KD to parent” value was 1.8.

In the case of B13, binding was put at a Kd of 150 nM, the koff amounted to 0.017 s⁻¹, the kon came to 110000 M⁻¹ s⁻¹ and the “relative KD to parent” value was 3.6.
